The source of these data is patent US20230174642A1, “AFFINITY-MATURATED ANTI-ASIC1a ANTIBODIES” (SHANGHAITECH UNIVERSITY, priority 2019, published 2023).

Test [1] has as its target T1, ASIC1a (Homo sapiens, UniProt P78348).
T1 construct: expressed in transfected cells
T1 sequence (P78348 1-528): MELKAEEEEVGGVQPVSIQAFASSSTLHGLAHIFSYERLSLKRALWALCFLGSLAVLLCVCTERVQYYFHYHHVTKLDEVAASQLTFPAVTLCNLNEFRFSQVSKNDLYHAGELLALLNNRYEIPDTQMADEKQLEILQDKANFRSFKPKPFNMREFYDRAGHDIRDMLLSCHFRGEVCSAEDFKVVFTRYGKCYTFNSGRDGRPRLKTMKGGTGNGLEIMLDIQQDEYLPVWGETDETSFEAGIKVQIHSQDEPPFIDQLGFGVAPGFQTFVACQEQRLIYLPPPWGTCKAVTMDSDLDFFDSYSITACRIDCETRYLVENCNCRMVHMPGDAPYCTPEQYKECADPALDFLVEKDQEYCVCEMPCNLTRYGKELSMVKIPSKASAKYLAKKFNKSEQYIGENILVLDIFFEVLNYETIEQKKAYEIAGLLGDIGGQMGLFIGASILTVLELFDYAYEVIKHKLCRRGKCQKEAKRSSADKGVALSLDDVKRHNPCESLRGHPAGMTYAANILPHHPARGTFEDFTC
As to the kind of experiment: FLIPR-based fluorescent membrane potential (FMP) assay. Type of test: cell-based. To be noted: increasing doses, pH 6. The text has this: A fluorescence-based assay using the FLIPR Membrane Potential Assay Kit (FMP kit) (Molecular Devices) was used for functional characterization of ASC06-IgG1 and the affinity-matured derivatives thereof. Specifically, the role of ASIC1a in acidosis and the effect of the antibodies of current disclosure was probed further. The FMP dye in the kit is a lipophilic, anionic, bis-oxonol dye, which permits a sensitive evaluation of changes in membrane potential with a more rapid response time. Using the FMP kit, a sensitive cell-based assay to detect acid-induced ASIC1a currents was developed using a cell line stably expressing ASIC1a. The ASIC1a-expressing stable cells were seeded in 96-well plates. The cells were treated with different concentrations of ASC06-IgG1. Untreated cells were used as a negative control. ASIC1a was stimulated by inducing acidosis by decreasing the extracellular pH to 6, and the changes in the fluorescent signal of the FMP dye were measured. An isotype control was used as a negative control for binding. […] The assay was applied to detect the efficiency of inhibition of ASIC1a currents by ASC06-IgG1, and affinity-matured derivatives thereof.
Using similar assays, the IC50 values for inhibition of ASIC1a currents were calculated based on the maximal fluorescent intensity of each concentration of antibodies compared to the negative control.

The target in test [2] is T1, ASIC1a. The experiment in a line: FLIPR-based assay of ASIC1a-mediated calcium influx. It counts as cell-based. To be noted: increasing doses, pH 6. The protocol:
The calcium influx of the ASIC1a channel was measured using a Fluorescence Imaging Plate Reader (FLIPR) instrument by measuring the fluorescent signal generated by the intracellular calcium indicator dye Calcium 5 (Molecular Devices) in a stable cell line expressing hASIC1a-m Cherry fusion.
The inhibition to calcium influx the affinity-matured ASC06-IgG1 derivative antibodies was also measured using the FLIPR-based assay. Using these assays, the IC50 values were calculated based on the maximal fluorescent intensity of the intracellular calcium indicator dye.

B1: ASC06-IgG1: parental (WT) ASIC1a-specific antagonist antibody; VL SEQ ID NO: 2, VH SEQ ID NO: 7, VH-CDR3 DSFYGYSKGD (antibody, V domains shown)
VH: QVQLQQSGGGLVQPGGSLRLSCAASGFTFSSYAMSWVRQAPGKGLEWVSAISGSGGSTYYADSVKGRFTISRDNSKNTLYLQMNSLRAEDTAVYYCAKDSFYGYSKGDWGQGTLVTVSS
VL: QSALTQPASVSGSPGQSITISCTGTSSDVGAYNYVSWYQQQPGKAPKLMIYGVSNRPSGVSNRFSGSKSGNAASLTISGLQAEDEADYYCSSYTSSSTYVFGTGTKLTVLG
modifications: IgG1 constant regions; Amino acid sequence VH of ASC06; Amino acid sequence VL of ASC06
In the case of B1, in the test with ASIC1a [1], the “inhibition of the fluorescent intensities (ASIC1a-mediated current)” value is on record as “dose-dependent inhibition”. In the test with ASIC1a [2], the “inhibition of calcium influx” value was “dose-dependent inhibition”.
